Reference: patent US20230332166A1, “FORMATE-INDUCIBLE PROMOTERS AND METHODS OF USE THEREOF” (Imperial College Innovations Ltd, priority 2020, published 2023)

Test system: Y. lipolytica JMY2900
Assay: qPCR of putative FDH gene transcription upon induction with sodium formate
Format: cell-based, Yarrowia lipolytica
Conditions: YNB with 0.5% sodium formate, 6 h, 28° C., vs absence of formate; qPCR normalised to actin
Protocol: FIG. 3: Transcription levels of the FDH genes of Yarrowia lipolytica W29 measured by qPCR, normalised to actin (ACT1) expression. Yarrowia lipolytica was grown in YNB supplemented with 1% glucose and 0.5% yeast extract at 15 h at 28° C., before being washed and transferred into YNB with 0.5% of sodium formate for induction and grown for 6 h.
The inducibility of the putative FDH genes with formate was then tested by qPCR. YALI0E14256g1_1 and the nine putative FDH with the highest % identity to YALI0E14256g1_1 were selected for testing. Y. lipolytica JMY2900 was cultured in YNB media supplemented with 1% glucose and 0.5% yeast extract for 15 h at 28° C. Cells were washed with distilled water and cultured in fresh liquid YNB media supplemented with 0.5% sodium formate at 28° C. with agitation at 160 rpm, before being harvested at 6 h post-inoculated. Cells were frozen in liquid nitrogen and stored at −80° C. RNA was subsequently extracted using the RNeasy Mini Kit (Qiagen), and 2 μg was treated with DNAse (Ambion; Life Science Technologies, Saint-Aubain, France). cDNA was synthesised using the Maxima First Strand cDNA synthesis kit (Thermo Fischer Scientific, Villebon sur Yvette, France). qPCR was then performed using the SYBRgreen mastermix (Thermo Fischer Scientific) with gene-specific primers designed using Primer3 software. Relative expression levels were calculated using ΔCT and ΔΔCT methods. Expression levels were normalised to actin.

Molecule	Fold increase on induction (fold change expression of putative FDH genes upon induction with sodium formate)
Yali0E15840: putative Y. lipolytica FDH gene; promoter region SEQ ID NO: 10 (1 Kb) and 26 (1.5 Kb) (nucleic acid, listed as Yarrowia lipolytica, YALI0E15840g) DNA: ATGAAGGTCCTTCTTGTTCTTTACGATGCTGGCTCTCACGCTGCTGACGAGCCCAAGCTCCTTGGATGCACCGAAAACGAGCTCGGTATCCGAGACTGGCTCGAGTCCCAGGGCCACACGCTTGTCACCACCTCTTCCAAGGATGGCGCCGACTCTGTGCTCGACAAGGAAATTGTTGACGCCGACGTTGTCATCACCACCCCCTTCCACCCCGGCTACATCAACAAGGAGCGAATCGACAAGGCCAAGAAGCTCAAGATCTGCATCACCGCCGGAGTCGGCTCGGACCACGTTGATCTCGATGCTGCCAACGCTCGAGATATCGCTGTTCTGGAGGTCACTGGTTCTAATGTCCAATCCGTCGCTGAGCATGTTGTCATGACTATGCTCGTTCTGGTCCGAAACTTTGTCCCCGCCCACGAGCAGATCATTTCCGGCGGGTGGGACGTTGCGGCGGTCGCCAAGGACTCCTACGATCTAGAGGGTAAGGTCATCGGTACCGTGGGAGGCGGCCGAATCGGTCAGCGTGTCCTCAAGCGATGCAAGCCTTTCGACCCCATGGAAATGCTCTACTACGATTACCAGCCCATGCCTGCCGACGTCGAAGAGGAGATTGGCTGCCGACGAGTCGAGTCGCTCGAGCAAATGCTTTCTCTGTGTGATGTTGTCACTATCAACTGCCCTCTGCACGCCTCCACCAAGGGTCTCTTCAACAAGGAGCTCATCTCCCACATGAAGGATGGAGCCTGGCTCGTCAACACTGCTCGAGGAGCCATCTGCGTCACCGAGGACATTGTCGAGGCCCTAGAGTCCGGCAAAATCCGAGGATACGGAGGAGACGTCTGGTTCCCCCAGCCTGCCCCCAAGGACCACCCCTGGAGAACCATGCGAAACAATTACGGTGGTGGAAACGCCATGACTCCCCACATCTCCGGAACCTCCATTGATGCCCAGGGCCGATACGCTGAGGGTACCAAGAAGATCCTCGAGGTCTTTTTCTCGGGCAAGCAGGATTATCGACCCCAGGATATCATCTGTATCAACGGCCATTATGGTACCAAGGCCTACGGTGACGACAAAGAGCATAAGGAGCATCAGCTCAAGTAA	5.7 fold
Yali0F13937: putative Y. lipolytica FDH gene; promoter region SEQ ID NO: 6 (1 Kb) and 22 (1.5 Kb) (nucleic acid, listed as Yarrowia lipolytica, YALI0F13937g) DNA: ATGAAGGTCCTTCTTATTCTCTATGATGCCGGCTCTCACGCTAAGGATGAGCCCAAGCTCCTTGGATGCACCGAGAACGAGCTCGGTATCCGAGACTGGCTCGAGTCTCAGGGCCATACTCTCGTTACCACCTCTTCCAAGGATGGCGCCGACTCTGTGCTTGACAAGGAGATTGTTGACGCCGATGTAGTCATCACTACCCCCTTCCACCCTGGCTACATCAACAAGGAGCGAATCGACAAGGCCAAGAAGCTCAAGATCTGCATCACTGCCGGTGTGGGCTCGGACCACGTTGATCTCGATGCTGCCAACGCTCGAGATATCGCTGTTCTGGAAGTCACTGGTTCTAATGTCCAGTCCGTCGCTGAGCATGTTGTCATGACTATGCTCGTTCTGGTCCGAAACTTTGTCCCCGCCCACGAGCAAATCATCTCTGGCGGCTGGGATGTTGCTGCTGTCGCCAAGGACTCCTACGATCTCGAGGGTAAGGTCATCGGTACCGTTGGTGGCGGCCGAATCGGCCAGCGTGTCCTCAAGCGATGCAAGCCCTTCGACCCCATGGAAATGCTCTACTACGACTACCAGCCCATGCCTGCCGACGTCGAAAAGGAGATTGGTTGCCGACGAGTTGAGTCTCTGGAGGAGATGCTCTCTCTGTGTGATGTCGTGACCATCAATTGCCCTCTGCACGCCTCCACCAAGGGCCTCTTCAACAAGGAGCTCATCTCGCACATGAAGAATGGTGCTTGGCTCGTCAACACTGCTCGAGGAGCCATCTGCGTTACCGAGGACATTGTCGAGGCACTCGAGTCCGGCAAGATGCGAGGATACGGTGGTGATGTCTGGTTCCCCCAGCCTGCCCCCAAGGACCATCCCTGGAGAACCATGCGAAACAAGTACGGTGGTGGAAACGCCATGACTCCTCATATCTCTGGCACTTCCATCGATGCCCAGGGCCGATACGCCGAGGGAACAAAGAAGATCCTCGAGGTCTTCTTCTCTGGCAAGCAGGATTACCGACCCCAGGACATTATCTGCATCAACGGTCACTACGGTACCAAGGCTTACGGTGACGACAAGGAGCACAAGGAGCACCAGCTTAAGTAAACATTTTTATAGTAACATCTCATTTTGT	38.6 fold
